The target of assay [1] is recombinant caseinolytic protease ClpP1 of Leptospira interrogans (L. interrogans serovar Copenhageni, UniProt Q72SG6 1-198). Nature of the assay: dynamic light scattering.
For assay [2], the target named is recombinant ClpP1 S98A active-site mutant of Leptospira interrogans (L. interrogans serovar Copenhageni, UniProt Q72SG6 1-198, S98A). As to the kind of experiment: dynamic light scattering.

Substitutions are numbered along the chain they refer to. Names may count otherwise.

B1: recombinant ClpP2 S97A active-site mutant of Leptospira interrogans (enzyme, L. interrogans serovar Copenhageni, UniProt Q72R01 1-197, looked up)
chain: MPETEKIAEVFEELTGSKISKNFLDHRKIFLWGPVTDESSKDLVGKLLYLEMKDPGKKITFYINSPGGVVTSGMTVFDTIKMISSPVHTVCMGMAAAMGSVLLAAGTKGERSIWPNGKVMIHQPSIGGQIVAPATDLKIHAEEILKTKTKLNQILADACGHPISKLEEDTDRDYYMDAEEAIKYGIVDKLATKIDFN
On to B1, for which, in assay [1], the binding result is recorded as “binds”.

B2: recombinant caseinolytic protease ClpP2 of Leptospira interrogans (enzyme, L. interrogans serovar Copenhageni, UniProt Q72R01 1-197, looked up)
chain: B1 chain with A97S
On to B2, for which the binding result in assay [1] and in assay [2] was “binds” each time.
